Measurements reported in article PMC4997359 (Scientific Reports, 2016).

Tests used:
[1] = molecular target: H3C110E-H4T71C-Alexa 488 (predominantly dimeric H3-H4 variant); assay: other fluorescence titration; labelled H3-H4 (H3C110E-H4T71C or H3C110A-H4T71C, Alexa 488; 0.1–10 nM) titrated with increasing NP (pentamer); 150 mM NaCl, 20 mM Tris-HCl, pH 7.6, 1 mM DTT, 0.1 mg/ml BSA; apparent Kd; ligand-depleted model with 2 sites per NP pentamer
[2] = molecular target: H2A–H2BT112C-Alexa 488 dimer (UniProt P06897); assay: other fluorescence titration; labelled H2A–H2BT112C-Alexa 488 (0.1–10 nM) titrated with increasing NP (pentamer); 150 mM NaCl, 20 mM Tris-HCl, pH 7.6, 1 mM DTT, 0.1 mg/ml BSA; apparent Kd; ligand-depleted model with 5 sites per NP pentamer
[3] = molecular target: cross-linked H3C110AK115C-H4T71C-Alexa 488 tetramer; assay: other fluorescence titration; cross-linked H3C110AK115C-H4T71C-Alexa 488 titrated with increasing NP (pentamer); 150 mM NaCl, 20 mM Tris-HCl, pH 7.6, 1 mM DTT, 1% glycerol, 0.05% Tween 20; apparent Kd; ligand-depleted model, 1/1 NP pentamer/histone tetramer
[4] = molecular target: H3C110E-H4T71C-Alexa 488 (predominantly dimeric H3-H4 variant); assay: other fluorescence titration; saturation stoichiometry: labelled histone dimers at 10 times the apparent Kd titrated with NP; molar ratio at the intersection of the linear phase with the plateau; 150 mM NaCl, 20 mM Tris-HCl, pH 7.6, 1 mM DTT, 0.1 mg/ml BSA
[5] = molecular target: H2A–H2BT112C-Alexa 488 dimer (UniProt P06897); assay: as above
[6] = molecular target: cross-linked H3C110AK115C-H4T71C-Alexa 488 tetramer; assay: other fluorescence titration; saturation stoichiometry: cross-linked H3C110AK115C-H4T71C-Alexa 488 at 10 times the apparent Kd titrated with NP; 150 mM NaCl, 20 mM Tris-HCl, pH 7.6, 1 mM DTT, 1% glycerol, 0.05% Tween 20
[7] = molecular target: egg nucleoplasmin (eNP), native NP from Xenopus laevis eggs (X. laevis) (UniProt P05221); assay: other fluorescence titration; competition: preformed NP/H2A–H2BT112C-Alexa 488 complexes (eNP 0.1 nM/histone 1 nM; rNP 0.5 nM/histone 5 nM) titrated with unlabelled H1 or H5; EC50 converted by the Cheng-Prusoff equation; apparent Kd
[8] = molecular target: full-length recombinant nucleoplasmin (rNP) (X. laevis) (UniProt P05221); assay: as above
[9] = molecular target: T1, full-length recombinant nucleoplasmin (rNP) (X. laevis, UniProt P05221 1-200); assay: as above; settings: both partners purified
T1 construct: nucleoplasmin (NPM2), Xenopus laevis, full length recombinant, non-phosphorylated; also called recombinant NP

[10] = molecular target: T2, egg nucleoplasmin (eNP), native NP from Xenopus laevis eggs (X. laevis, UniProt P05221 1-200, natural post-translational modifications, in particular phosphorylation (hyperphosphorylated); sites not printed in the text (circles in Figure 1A)); assay: as above; settings: both partners purified
T2 construct: nucleoplasmin (NPM2), Xenopus laevis, 22 kDa subunit, residues 1-200 (core 1-120, tail 121-200); Homopentamer; also called NPM2; natural NP

Kd [1]	Kd [2]	stoichiometry N (H2A–H2B dimers per NP pentamer) [5]	Molecule	also measured
16000 nM	11 nM	–	rNPΔ120–200, recombinant nucleoplasmin core lacking the whole C-terminal domain (from UniProt P05221 1-119) (domain or fragment)	–
3 nM	7 nM	2	full-length recombinant nucleoplasmin (rNP) (from UniProt P05221 1-200) (natural protein)	Kd [3]: 2.1 nM; stoichiometry N (cross-linked tetramer per NP pentamer) [6]: 1
0.09 nM	0.11 nM	3	oocyte nucleoplasmin (oNP), NP isolated from X. laevis oocytes (from UniProt P05221 1-200) (natural protein)	–

The remaining lines, values behind:

Molecule	Kd [1]	Kd [2]	stoichiometry N (H2A–H2B dimers per NP pentamer) [5]	also measured
egg nucleoplasmin (eNP), native NP from Xenopus laevis eggs (from UniProt P05221 1-200) (natural protein)	0.05 nM	0.06 nM	5	Kd [3]: 1.1 nM; stoichiometry N (H3-H4 dimers per NP pentamer) [4]: 2; stoichiometry N (cross-linked tetramer per NP pentamer) [6]: 1
rNPΔ150–200, recombinant nucleoplasmin lacking the last 50 residues (from UniProt P05221 1-149) (domain or fragment)	0.05 nM	0.12 nM	5	–
linker histone H1 from chicken erythrocyte chromatin (from UniProt P09987 1-218) (natural protein)	–	–	–	Kd [7]: 0.07 nM; Kd [8]: 1.7 nM
linker histone H5 from chicken erythrocyte chromatin (natural protein, UniProt P02259 1-190, looked up, histone H5, chicken erythrocytes; Unlabelled) MTESLVLSPAPAKPKRVKASRRSASHPTYSEMIAAAIRAEKSRGGSSRQSIQKYIKSHYKVGHNADLQIKLSIRRLLAAGVLKQTKGVGASGSFRLAKSDKAKRSPGKKKKAVRRSTSPKKAARPRKARSPAKKPKATARKARKKSRASPKKAKKPKTVKAKSRKASKAKKVKRSKPRAKSGARKSPKKK	–	–	–	Kd [9]: 0.7 ± 0.2 nM; Kd [10]: 0.03 ± 0.006 nM
